From patent US20040053388A1, “Detection of protein conformation using a split ubiquitin reporter system” (priority 2003, published 2004)
Residue numbers refer to the chain shown, from its start.

Columns and labels:
[1] = target: HA-tagged Ste4p (Saccharomyces cerevisiae) (UniProt P18851); test: cell-based or functional assay
yeast cells = test: Growth assay of Nub-p53core-Cub—RUra3p yeast cells on media containing 5-FOA; format: cell-based; conditions: Nia fusion protein
Text: The wild-type core domain and a destabilizing mutation V143A were further tested using a simple growth assay employing the R-ura3 reporter (see above) and selecting clones that can grow on 5-FOA. In this case the Nub (I13A) mutant Nia was used. If the Nub—X—Cub—R-ura3 fusion is […], the R-ura3 reporter will be cleaved off of the C-terminal end of Cub and subsequently be degraded by N-end rule components (see above), allowing the host yeast cell to grow on the 5-FOA selective media.
Consistent with previous results, the V143A core mutant is a destabilizing mutant when compared to the wild-type p53. […] The Nia fusion protein allows to distinguish between the cells expressing the wild type p53core (growth) and the cells expressing the V143A mutant of the core (non-growth).

S. cerevisiae cells = test: Intrapolypeptide split-ubiquitin cleavage of Nub—X—Cub-Dha fusions, anti-HA immunoblot with chemiluminescence quantification; format: cell-based, Saccharomyces cerevisiae; conditions: yeast cells; for cleavage (percentage of cleaved Dha compared to the sum of cleaved and uncleaved fusion protein): 30° C., one hour induction with 100 μM CuSO4, anti-HA immunoblot
Text: The isoleucine residues at position three and thirteen of Nub (Nii) were replaced by valine (Nxv; Nvx) alanine (Nxa; Nax) and glycine (Nxg; Ngx) (Johnsson et al., Proc. Natl. Acad. Sci. USA 91: 10340-44, 1994; Kellis et al., Biochemistry 28: 4914-22, 1989). The residues at position 3 and 13 are indicated by the suffix in Nub with the corresponding amino acids in the single letter code. The sixteen different combinations were first tested in the otherwise native Ub which was attached in front of the dihydrofolate reductase carrying the HA epitope at its C-terminus (Ub-Dha). The analysis of the cleaved and uncleaved protein was performed by immunodetection of the proteins with the anti-HA antibody after cell extraction and SDS-PAGE separation.
S. cerevisiae cells expressing the different Nub—X—Cub-fusions were grown at 30° C. in […] of SD medium to an OD600 of 0.8 and supplemented with 100 μM CuSO4 one hour prior to cell extraction. Cell extraction for immunoblotting was performed essentially as previously described (Johnsson et al., Embo J. 13: 2686-98, 1994). Proteins were fractionated by SDS-12.5% PAGE and electroblotted onto nitrocellulose membranes (Schleicher and Schuell, Dassel, Germany), using a semi-dry transfer system (Hoefer, Pharmacia Biotech INC., San Francisco, Calif.). Blots were incubated with a monoclonal anti-ha antibody (Babco, Richmond, Calif.). Bound antibody was visualized with horseradish peroxidase-coupled rabbit anti-mouse or goat anti-rabbit antibody (BioRad, Hercules, Calif.), using the chemiluminescence detection system (Pierce, Rockford, Ill.). The chemiluminescence was quantified with the aid of the lumi-imager system (Boehringer, Mannheim, Germany).

Guk1-Cub-Dha = Guk1-Cub-Dha (Saccharomyces cerevisiae, UniProt P15454 1-187; P0CG63 35-76; P00375 1-187); test: split-ubiquitin in trans: coexpression in yeast, anti-ha immunoblot of cleaved Dha
Guk1-Cub-Dha, sequence (P15454 other isoform, or with tags, fused parts or gaps): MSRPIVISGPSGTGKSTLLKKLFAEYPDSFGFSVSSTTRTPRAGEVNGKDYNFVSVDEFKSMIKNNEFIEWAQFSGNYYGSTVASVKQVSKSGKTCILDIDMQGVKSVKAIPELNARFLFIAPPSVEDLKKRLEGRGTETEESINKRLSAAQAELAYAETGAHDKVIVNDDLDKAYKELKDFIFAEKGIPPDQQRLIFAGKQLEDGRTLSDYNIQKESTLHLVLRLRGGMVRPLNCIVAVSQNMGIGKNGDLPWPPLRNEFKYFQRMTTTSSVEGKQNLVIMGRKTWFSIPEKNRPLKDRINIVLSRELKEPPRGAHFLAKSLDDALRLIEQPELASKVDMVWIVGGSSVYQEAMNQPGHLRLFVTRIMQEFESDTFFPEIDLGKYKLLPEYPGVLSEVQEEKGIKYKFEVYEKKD
Text: (§1) A significant extent of the observed cleavage could arise from the intermolecular reassociation of two Ub-halves that are linked to two different polypeptides. To estimate the contribution of the intermolecular Ub-reassociation, Guk1-Cub-Dha was coexpressed with several versions of Nub-Guk1-ha as was Fpr1-Cub-Dha with several versions of Nub-Fpr1-ha (FIG. 4a). Good intermolecular Nub—Cub reassociation is only seen in cells expressing the Nᵢᵢ-fusions, whereas none or only background cleavage is seen in those cells co-expressing the corresponding Nig-fusions. Nub-mutants with a lower affinity for Cub than Nig were therefore not tested. It thus can be concluded that the cleaved Dha observed for Nig—Cub fusion proteins and for those fusion proteins containing a Nub with a lower affinity for Cub than Nig must result exclusively from the intramolecular reassociation of the coupled Ub-peptides. The structure of Guk1p offers a reasonable explanation for this observation, that can not apply for the Fpr1p fusion proteins. Here the reassociation must either occur before Fpr1p is folded or after the unfolding of the already matured protein. […] We conclude that the fraction of cleaved Dha which is detected in the immunoblot analysis of cells expressing Nvg-Fpr1-Cub-Dha is largely derived from fusion proteins which stayed in the cytosol long enough to give the Fpr1-moiety sufficient time to fold.

Fpr1-Cub-Dha = Fpr1-Cub-Dha (Saccharomyces cerevisiae, UniProt P20081 1-114; P0CG63 35-76; P00375 1-187); test: as above
Fpr1-Cub-Dha, sequence (P20081 other isoform, or with tags, fused parts or gaps): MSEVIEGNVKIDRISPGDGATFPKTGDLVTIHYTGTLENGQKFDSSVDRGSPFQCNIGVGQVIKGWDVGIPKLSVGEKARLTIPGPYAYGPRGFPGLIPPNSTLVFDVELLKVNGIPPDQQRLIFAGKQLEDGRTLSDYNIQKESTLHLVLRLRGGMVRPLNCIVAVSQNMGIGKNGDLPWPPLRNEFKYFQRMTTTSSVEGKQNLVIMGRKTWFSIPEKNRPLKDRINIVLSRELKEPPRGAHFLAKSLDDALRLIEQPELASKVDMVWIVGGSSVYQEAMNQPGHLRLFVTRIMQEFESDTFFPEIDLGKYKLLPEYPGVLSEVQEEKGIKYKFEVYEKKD
Text: as §1

HA-tagged Ste4p (Saccharomyces cerevisiae), sequence (P18851 other isoform, or with tags, fused parts or gaps limits assumed): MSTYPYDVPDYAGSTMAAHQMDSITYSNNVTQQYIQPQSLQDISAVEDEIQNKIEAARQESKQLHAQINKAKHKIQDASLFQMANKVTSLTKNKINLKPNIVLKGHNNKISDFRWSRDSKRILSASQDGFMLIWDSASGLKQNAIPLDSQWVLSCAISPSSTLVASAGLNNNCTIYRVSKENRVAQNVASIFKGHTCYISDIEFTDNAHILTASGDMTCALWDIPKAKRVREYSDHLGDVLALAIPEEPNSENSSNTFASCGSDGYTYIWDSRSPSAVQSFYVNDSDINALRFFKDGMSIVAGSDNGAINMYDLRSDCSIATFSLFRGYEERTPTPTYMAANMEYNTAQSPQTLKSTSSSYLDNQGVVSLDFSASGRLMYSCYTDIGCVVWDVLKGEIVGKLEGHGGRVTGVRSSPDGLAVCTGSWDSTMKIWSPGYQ

Molecule: Nvg-Ste1874-Cub-Dha (from UniProt P0CG63 1-37; P18852 37-105; P0CG63 35-76; P00375 1-187)
- ratio of uncleaved to cleaved fusion protein with HA-Ste4p against without, expression not induced by copper [1]: 1.6 fold

Molecule: wild type p53core: p53 core domain (amino acids 102-292) in Nub-p53core-Cub—RUra3p fusion
- growth on media containing 5-FOA (yeast cells): growth

Molecule: Nvg-Ste1891-Cub-Dha (from UniProt P0CG63 1-37; P18852 20-105; P0CG63 35-76; P00375 1-187)
- fraction of uncleaved fusion protein (ratio of uncleaved to cleaved) with HA-Ste4p against without, inducing conditions (+Cu2+) [1]: 2 fold
- fraction of uncleaved fusion protein (ratio of uncleaved to cleaved) with HA-Ste4p against without, non-inducing conditions [1]: 3.6 fold

B1: Fpr1V107A (protein, UniProt P20081 2-114, looked up, variant V107A)
FK506-binding protein 1: SEVIEGNVKIDRISPGDGATFPKTGDLVTIHYTGTLENGQKFDSSVDRGSPFQCNIGVGQVIKGWDVGIPKLSVGEKARLTIPGPYAYGPRGFPGLIPPNSTLVFDAELLKVN
- cleavage (percentage of cleaved Dha compared to the sum of cleaved and uncleaved fusion protein) (S. cerevisiae cells): 55%

B2: Fpr1V107G (protein, UniProt P20081 2-114, looked up, variant V107G)
FK506-binding protein 1: B1 FK506-binding protein 1 with A107G
- cleavage (percentage of cleaved Dha compared to the sum of cleaved and uncleaved fusion protein) (S. cerevisiae cells): 40%

B3: Nig-Guk1-ha (other, UniProt P0CG63 1-37, looked up, not shown: small tags and cut ends)
chain: MQIFVKTLTGKTGTLEVESSDTIDNVKSKIQDKEGIPMSRPIVISGPSGTGKSTLLKKLFAEYPDSFGFSVSSTTRTPRAGEVNGKDYNFVSVDEFKSMIKNNEFIEWAQFSGNYYGSTVASVKQVSKSGKTCILDIDMQGVKSVKAIPELNARFLFIAPPSVEDLKKRLEGRGTETEESINKRLSAAQAELAYAETGAHDKVIVNDDLDKAYKELKDFIFAEK
notes: also called Nub-Guk1-ha; Nig-fusion
- binding result (Guk1-Cub-Dha): no binding

B4: Guk1V5R: Fusion construct of Guk1p with valine 5 replaced by arginine (protein, UniProt P15454 2-187, looked up, variant V5R)
Guanylate kinase: SRPIRISGPSGTGKSTLLKKLFAEYPDSFGFSVSSTTRTPRAGEVNGKDYNFVSVDEFKSMIKNNEFIEWAQFSGNYYGSTVASVKQVSKSGKTCILDIDMQGVKSVKAIPELNARFLFIAPPSVEDLKKRLEGRGTETEESINKRLSAAQAELAYAETGAHDKVIVNDDLDKAYKELKDFIFAEK
modifications: split-ubiquitin fusion construct
notes: Fusion construct of Guk1p with valine 5 replaced by arginine
- cleavage (percentage of cleaved Dha compared to the sum of cleaved and uncleaved fusion protein) (S. cerevisiae cells): 61%

B5: Nvg-Guk1G8R—Cub-Dha: Nvg—Cub-Dha fusion of Guk1p with glycine 8 replaced by arginine (protein, UniProt P15454 2-187, looked up, variant G8R)
Guanylate kinase: B4 Guanylate kinase with R5V, G8R
modifications: fused to Nvg, Cub, Dha
notes: Nvg—Cub-Dha fusion of Guk1p with glycine 8 replaced by arginine
- cleavage of fusion protein (in words) (S. cerevisiae cells; anti-HA immunoblot): cleaved as completely as the corresponding wild type construct

B6: Nig-Fpr1-ha (other, UniProt P0CG63 1-37, looked up, not shown: small tags and cut ends)
chain: MQIFVKTLTGKTGTLEVESSDTIDNVKSKIQDKEGIPMSEVIEGNVKIDRISPGDGATFPKTGDLVTIHYTGTLENGQKFDSSVDRGSPFQCNIGVGQVIKGWDVGIPKLSVGEKARLTIPGPYAYGPRGFPGLIPPNSTLVFDVELLKVN
notes: also called Nub-Fpr1-ha; Nig-fusion
- binding result (Fpr1-Cub-Dha): no binding
